Data set [1] has as its target T1, β2AR-365:Gs complex (UniProt P04896+P07550, E27Q/G16R/N187E).
T1 construct: A β2AR construct truncated after residue 365; Flag (M1); made in house; host or cells: High 5 insect cells (Gs subunits)
Put plainly: analytical gel filtration: stability of the R:G complex in detergents. The note with it: for stability of the R:G complex in detergent: 48 hrs at 4° C. As for the experimental part:
(§1) FIG. 4: Stabilizing effect of MNG-3 on the R:G complex. Panel a) Analytical gel filtration of β2AR-365:Gs complexes purified in DDM (in black), MNG-3 (in blue), or two MNG-3 analogs (in red and green) following incubation for 48 hrs at 4° C. In contrast to DDM the R:G complexes are stable in the MNG detergents. Panel b) Effect of diluting unliganded purified β2AR in DDM or MNG-3 below the critical micelle concentration (CMC) of the detergent as assayed by 3H-dihydro alprenolol (3H-DHA) saturation binding.
One challenge for crystallogenesis was to prepare a stable β2AR:Gs complex in detergent solution. The β2AR and Gs couple efficiently in lipid bilayers, but not in detergents used to solubilize and purify these proteins (Example 1). […] Apyrase, a non-selective purine pyrophosphatase, was added to hydrolyze GDP released from Gs on forming a complex with the β2AR. The complex was subsequently purified by sequential antibody affinity chromatography and size exclusion chromatography. The stability of the complex was enhanced by exchanging it into a recently developed maltose neopentyl glycol detergent (NG-310, Anatrace) (Chae et al., 2010).

Another data set has as its target T2, unliganded purified β2AR (Homo sapiens, UniProt P07550).
T2 construct: made in house
Put plainly: 3H-DHA saturation binding after dilution of detergent below the CMC. The note with it: diluted 1000-fold below the CMC; DDM after 20 sec, MNG-3 after 24 hrs. The method, then:
as §1

Data set [2] deals with T1, β2AR-365:Gs complex. Put plainly: analytical gel filtration: effect of nucleotide analogs on the R:G complex. The data set is classed as biochemical. To be noted: for effect of nucleotides on the β2AR:Gs complex: 0.1 mM (FIG. 3A); for effect of phosphates resembling nucleotide phosphate groups on the complex: 5 mM. As for the experimental part: FIGS. 3A-3G: Effect of nucleotide analogs, pH, and nanobodies on the stability of the β2AR:Gs complex. […] FIG. 3C, The pH limit was determined to guide the preparation of crystallization screens. For the same purpose the effect of ionic strength (data not shown) was determined using NaCl at various concentrations.
To maintain the high-affinity nucleotide-free state of the complex, apyrase (25 mU/ml, NEB) was added after 90 min to hydrolyze residual GDP released from Gαs upon binding to the receptor.

The target of data set [3] is T3, AVP:NT4LV2R:Gs complex (Arginine vasopressin receptor 2) (Homo sapiens, UniProt P30518).
T3 construct: The N-terminally fused T4L V2R construct (NT4L-V2R); His tag (only implied by nickel-NTA purification of the receptor); made in house; host or cells: Sf9 (NT4L-V2R); High 5 (Gs); E. coli WK6 (Nb35)
Put plainly: SEC stability of the AVP:NT4LV2R:Gs complex. In kind it is biochemical. As for the experimental part:
Arginine vasopressin (AVP), also known as vasopressin, argipressin or antidiuretic hormone, is a natural ligand that activates Arginine vasopressin receptor 2.
Formation of a stable complex (FIG. 19, Panel a) was accomplished by mixing His tagged Gs heterotrimer at approximately 90 μM concentration with AVP bound NT4LV2R (90 μM) and NB35 (100 μM) in 0.1 ml buffer (10 mM HEPES, pH 7.5, 100 mM NaCl, 0.1% DDM, 1 mM EDTA, 3 mM MgCl2, 10 μM AVP) and incubated for 2 hours at room temperature. Next, the AVP:NT4LV2R:Gs complex was purified in two successive affinity purification steps. The purification was monitored by SDS-PAGE (FIG. 19). First, the complex was applied on a Ni-NTA column after adding 300 μl of 1% MNG in 10 mM HEPES, pH 7.5, 100 mM NaCl buffer onto the reaction mix. Following extensive washing with buffer, the complex was eluted in 0.2% MNG, 10 mM HEPES, pH 7.5, 100 mM NaCl AVP 10 μM with 200 mM imidazole. Next the complex was applied on a FLAG-tag affinity column, washed extensively in the same buffer containing 0.01% MNG and eluted with the FLAG-peptide. […] This complex was further purified by SEC on a superdex200 column in 10 mM HEPES, pH 7.5, 100 mM NaCl, 0.01% MNG, 1 mM EDTA, 3 mM MgCl2, 1 μM AVP). […]

Data set [4] addresses T4, purified Gsαβγ heterotrimer (UniProt P04896+P54311).
T4 construct: made in house; host or cells: High 5 insect cells
Kind of data set: Bodipy-GTPγS-FL fluorescence nucleotide binding assay on Gs heterotrimer. The data set is classed as biochemical, bovine Gαs, rat Gβ1, rat Gγ2. To be noted: 100 nM Bodipy-GTPγS-FL, 1 μM purified Gsαβγ heterotrimer, increasing concentrations of nanobody. As for the experimental part:
(§2) To investigate the effect of nanobodies (Nb35 and Nb37) on Gs alone, nanobodies were added together with bodipy-GTPγS-FL and various Gs protein preparations in 20 mM Tris-HCl, Ph 8.0, 3 mM MgCl2, 1 mM DTT in a final volume of 200 μL. Samples containing a heterotrimeric Gs protein also included 0.1% DDM. Bodipy-GTPγS-FL is a stable fluorescent GTP analog (λex≈470 nm, λem≈515 nm). Its fluorescence intensity increases upon G protein binding and Bodipy-GTPγS-FL can therefore be used for real-time measurements of nucleotide binding to G proteins (McEwen et al., 2001). Fluorescence was measured in a 96-well microtiter plate format on a M5 fluorescence plate reader (Molecular […]).
In another experiment (FIG. 18), increasing amounts of Nb35 were incubated with 1 μM of the purified Gs αβγ heterotrimer and 100 nM Bodipy-GTPγS-FL.

The test system of another data set is β2AR:Gs:BI167107 complex. Kind of data set: analytical size exclusion chromatography of the ternary complex in the presence and absence of GTPγS. The data set is classed as biochemical, human β2AR; bovine Gαs, rat Gβ1, rat Gγ2. As for the experimental part: The mutual effects of Nbs and the non-hydrolyzable GTP analog GTPγS on the integrity of the agonist:β2AR:Gs ternary complex was analyzed by analytical size exclusion chromatography in the presence and absence of GTPγS.

The target of a further data set is T5, purified Gαs (Bos taurus, UniProt P04896).
T5 construct: made in house
Put plainly: Bodipy-GTPγS-FL fluorescence nucleotide binding assay on Gαs. In kind it is biochemical, Bovine. The note with it: 100 nM Bodipy-GTPγS-FL, 1 μM purified Gαs, increasing concentrations of nanobody, 300 seconds. The method, then: as §2
In a first experiment (FIG. 16), increasing amounts of Nb37 were incubated with 1 μM purified GαS and 100 nM Bodipy-GTPγS-FL and the fluorescence increase was measured on a short time scale (300 seconds) to minimize the accumulation of the hydrolysis product bodipy-phosphate (Jameson et al., 2005). The Gαs subunit of the heterotrimeric Gs protein was purified as described previously (Sunahara et al., 1997). […] In a similar experiment (FIG. 17), increasing amounts of Nb35 were incubated with 1 μM purified GαS and 100 nM Bodipy-GTPγS-FL.

Data set [5] deals with β2AR:Gs:BI167107 ternary complex. Kind of data set: analytical gel filtration (size exclusion chromatography) of nanobody binding to the ternary complex. Details: species or system human β2AR; bovine Gαs, rat Gβ1, rat Gγ2. The note with it: for epitope on the Gs heterotrimer relative to Nb37 (size exclusion chromatography): forms R:G:Nb:Nb37 complex.

Here are results for 13 molecules from patent US10626154B2, “Binding domains directed against GPCR:G protein complexes and uses derived thereof” (VIB VZW, priority 2011, dated 2020).

Entries after “also recorded” stand apart in the source; their conditions may differ. Where two headings read alike, the source gives them in different places.

`CCCCCCCCCCCCO[C@@H]1O[C@H](CO)[C@@H](O[C@H]2O[C@H](CO)[C@@H](O)[C@H](O)[C@H]2O)[C@H](O)[C@H]1O` [DDM, n-Dodecyl-β-D-maltoside]: the “stability of the R:G complex in detergent” value on β2AR-365:Gs complex [1] is given as “significant dissociation”. At unliganded purified β2AR, the “3H-DHA binding of β2AR after dilution of detergent” value was “loss in 3H-DHA binding”.
For `CCCCCCCCCCC(CCCCCCCCCC)(CO[C@@H]1O[C@H](CO)[C@@H](O[C@H]2O[C@H](CO)[C@@H](O)[C@H](O)[C@H]2O)[C@H](O)[C@H]1O)CO[C@@H]1O[C@H](CO)[C@@H](O[C@H]2O[C@H](CO)[C@@H](O)[C@H](O)[C@H]2O)[C@H](O)[C@H]1O` [MNG-3], the “stability of the R:G complex in detergent” value at β2AR-365:Gs complex [1] is given as “substantially stabilize the complex; also recorded: stable”. In addition, the “stability of the β2AR:Gs complex in detergent at room temperature” value at β2AR-365:Gs complex [1] (room temperature for 24 hours) is recorded as “without any noticeable degradation”. The “3H-DHA binding of β2AR after dilution of detergent” value at unliganded purified β2AR is given as “maintained full ability to bind the radioligand”.
As for `Nc1nc2c(ncn2[C@@H]2O[C@H](COP(=O)(O)OP(=O)(O)O)[C@@H](O)[C@H]2O)c(=O)[nH]1` [GDP, guanosine diphosphate], the “effect of nucleotides on the β2AR:Gs complex” value (“effect of nucleotides” below) on β2AR-365:Gs complex [2] is “disrupt the β2AR:Gs complex; also recorded: causes dissociation of the β2AR-365:Gs complex”.
For the molecule `O=C(O)P(=O)(O)O` [forcarnet], the “effect of phosphates resembling nucleotide phosphate groups on the complex” value on β2AR-365:Gs complex [2] is on record as “did not cause disruption of the complex”.
In the case of `CCCc1ccccc1OCC(O)CNC(C)C` (stereo not shown) [^3H-dihydro-alprenolol], the “effect of M96T and M98T receptor mutations on ligand affinity” value in the data set on T4L-β2AR (data not shown) is given as “did not affect ligand binding affinity”.
As for `Nc1nc2c(ncn2[C@@H]2O[C@H](COP(=O)(O)OP(=O)(O)OP(=O)(O)O)[C@@H](O)[C@H]2O)c(=O)[nH]1` [GTP, guanosine triphosphate], on β2AR-365:Gs complex [2], the “effect of nucleotides” value is “disrupt the β2AR:Gs complex”.
Consider `O=P(O)(O)OP(=O)(O)O` [pyrophosphate], for which, at β2AR-365:Gs complex [2], the “effect of phosphates resembling nucleotide phosphate groups on the complex” value is “did not cause disruption of the complex”.
As to `CC(C)NCC(O)c1ccc(O)c(O)c1` (stereo not shown) [isoproterenol], in the data set on T4L-β2AR, the “effect of M96T and M98T receptor mutations on ligand affinity” value is reported as “two-fold decrease in affinity”.
With `CCOc1ccc2c(c1)C1(CCC(OCCN3CCOCC3)CC1)C(=O)N2S(=O)(=O)c1ccc(C(=O)NC(C)(C)C)cc1OC` (stereo not shown) [SR121463, reference compound], in [3] (10 μM), the “effect of antagonist on the AVP:NT4LV2R:Gs complex” value was “disrupts the AVP:NT4LV2R:Gs complex”.
Consider `Nc1nc2c(ncn2[C@@H]2O[C@H](COP(=O)(O)OP(=O)(O)OP(O)(O)=S)[C@@H](O)[C@H]2O)c(=O)[nH]1` [GTPγS], for which, at β2AR-365:Gs complex [2], the “effect of nucleotides” value is recorded as “causes dissociation of the β2AR-365:Gs complex”.

B1: Nb35: nanobody, SEQ ID NO: 1; binds Gs at the interface of Gα and Gβ subunits (protein, listed as Lama glama)
VHH: QVQLQESGGGLVQPGGSLRLSCAASGFTFSNYKMNWVRQAPGKGLEWVSDISQSGASISYTGSVKGRFTISRDNAKNTLYLQMNSLKPEDTAVYYCARCPAPFTRDCFDVTSTTYAYRGQGTQVTVSSHHHHHHEPEA
With B1, the “effect on GTPγS binding to the Gsαβγ heterotrimer” value in [4] is on record as “blocks GTPγS binding to the free Gsαβγ heterotrimer in a dose dependent manner; also recorded: inhibits GTPγS binding to the Gsαβγ heterotrimer”. The “stability of the V2R:Gs:AVP complex with nanobody in SEC” value in [3] (complex of V2R, Gs, Nb35 and AVP) was “demonstrated the stability of this complex in SEC”. Moreover, the “protection of the ternary complex from dissociation by GTPγS” value (shortened to “protection of the ternary complex”) is “protects the complex from dissociation by GTPγS; also recorded: insensitive to GTPγS treatment” in the data set with β2AR:Gs:BI167107 complex and “protect the β2AR:Gs:BI167107 complex from dissociation” in the data set with β2AR:Gs:BI167107 complex (listed as 35). For the same molecule, in the data set with purified Gαs, the “effect on GTPγS binding to Gαs alone” value is listed as “has no effect on GTPγS binding; also recorded: does not affect GTPγS binding to Gαs”. In addition, in data set [5], the “binding to the β2AR:Gs:BI167107 ternary complex by analytical gel filtration” value (“binding … by analytical gel filtration” for short) is listed as “further confirmed”. In addition, the “epitope on the Gs heterotrimer relative to Nb37 (size exclusion chromatography)” value in [5] is on record as “bind separate epitopes”.

B2: Nb37: nanobody, SEQ ID NO: 4, binds the Gsα subunit (protein, listed as Lama glama)
VHH: QVQLQESGGGFVQAGGSLRLSCAASGSIFSKNTMAWFRQAPGKERELVAASPTGGSTAYKDSVKGRFTISRDSAKNTVLLQMNVLKPEDTAVYYCHLRQNNRGSWFHYWGQGTQVTVSSHHHHHHEPEA
B2: the “protection of the ternary complex” value is listed as “insensitive to GTPγS treatment” in the data set with β2AR:Gs:BI167107 complex and “protect the β2AR:Gs:BI167107 complex from dissociation” with β2AR:Gs:BI167107 complex (listed as 37). For the same molecule, the “effect on GTPγS binding to Gαs alone” value with purified Gαs is reported as “blocks GTPγS binding to Gsα alone in a dose dependent manner; also recorded: inhibits GTPγS binding to Gαs”. For the same molecule, the “binding … by analytical gel filtration” value in [5] was “further confirmed”.

B3: Nb36: nanobody, SEQ ID NO: 3, binds Gs (protein, listed as Lama glama)
VHH: QVQLQESGGGSVQAGGSLRLSCTVSGTIFSVTVMGWYRQAPGKQRELVAGFTNTRNTNYVDSVKGRFTISKDSAKNTMYLQMNSLKPEDTAVYYCNVRRWGGTNWNDYWGQGTQVTVSSHHHHHHEPEA
Consider B3, for which, in the data set with β2AR:Gs:BI167107 complex, the “protection of the ternary complex” value was “less sensitive to GTPγS treatment”. In addition, the “protection of the ternary complex” value in the data set on β2AR:Gs:BI167107 complex (listed as 36) is recorded as “protect the β2AR:Gs:BI167107 complex from dissociation”. In data set [5], the “binding … by analytical gel filtration” value is given as “further confirmed” and the “epitope on the Gs heterotrimer relative to Nb37 (size exclusion chromatography)” value is given as “bind separate epitopes”.
